In assay [1] the target is CNX-mcherry fluorescent protein expressed in Huh7 cells. Put plainly: immunofluorescence, Huh7 CNX-mcherry cells minus plain Huh7 cells, Alexa-coupled secondary.
Assay [2] concerns the target Recombinant human CANX protein fused with the Fc region of human IgG1 at the C-terminus (HuCANX_hFc) (human) (UniProt P27824). Put plainly: ELISA, IgG1 coated 2 ug/ml, biotinylated antigen titrated (EC50 is of the antigen), streptavidin-HRP; curve is flat, value lies beyond the range shown. On the technique in general: An ELISA detects its analyte on a solid surface through an enzyme-linked reagent.

Assay [3] addresses CNX-mcherry fluorescent protein expressed in Huh7 cells. The assay can be described thus: immunofluorescence, Huh7 CNX-mcherry cells minus plain Huh7 cells, anti-human Alexa 647.
Assay [4] deals with CNX-his antigen (Genscript) (human) (UniProt P27824). The assay can be described thus: ELISA with serial dilutions of the antibody on coated His-tagged human CNX.
CNX-his antigen (Genscript) (human), sequence (P27824 21-481 limits assumed): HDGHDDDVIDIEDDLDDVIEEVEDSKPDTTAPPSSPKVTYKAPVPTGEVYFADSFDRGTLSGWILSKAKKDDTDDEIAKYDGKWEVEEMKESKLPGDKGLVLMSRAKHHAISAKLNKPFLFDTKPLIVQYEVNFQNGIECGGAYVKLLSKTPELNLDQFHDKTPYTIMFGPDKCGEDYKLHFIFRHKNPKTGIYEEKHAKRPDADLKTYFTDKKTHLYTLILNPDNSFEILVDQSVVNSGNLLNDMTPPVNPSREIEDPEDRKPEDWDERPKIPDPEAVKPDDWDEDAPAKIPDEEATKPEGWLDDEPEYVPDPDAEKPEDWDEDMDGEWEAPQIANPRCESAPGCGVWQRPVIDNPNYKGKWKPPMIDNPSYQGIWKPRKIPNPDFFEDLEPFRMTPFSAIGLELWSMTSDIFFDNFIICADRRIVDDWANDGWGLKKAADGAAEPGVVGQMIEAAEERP

CNX-mcherry fluorescent protein expressed in Huh7 cells, sequence (P27824 21-592): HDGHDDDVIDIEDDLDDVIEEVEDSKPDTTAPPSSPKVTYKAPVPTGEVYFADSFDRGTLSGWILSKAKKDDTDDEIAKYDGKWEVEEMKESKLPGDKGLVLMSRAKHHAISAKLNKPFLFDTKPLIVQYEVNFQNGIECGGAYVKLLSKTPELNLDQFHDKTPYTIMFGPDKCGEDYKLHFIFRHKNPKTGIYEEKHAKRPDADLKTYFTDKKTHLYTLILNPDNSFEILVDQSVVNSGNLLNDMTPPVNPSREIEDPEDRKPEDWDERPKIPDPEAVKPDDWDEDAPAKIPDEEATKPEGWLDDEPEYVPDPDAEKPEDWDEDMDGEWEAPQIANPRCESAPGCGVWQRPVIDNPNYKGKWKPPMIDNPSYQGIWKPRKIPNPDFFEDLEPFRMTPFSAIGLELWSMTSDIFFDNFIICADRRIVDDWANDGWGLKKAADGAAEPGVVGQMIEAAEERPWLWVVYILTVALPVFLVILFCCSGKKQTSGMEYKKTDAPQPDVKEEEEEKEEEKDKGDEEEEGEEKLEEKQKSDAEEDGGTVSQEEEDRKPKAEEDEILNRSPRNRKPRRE
Recombinant human CANX protein fused with the Fc region of human IgG1 at the C-terminus (HuCANX_hFc) (human), sequence (P27824 21-481 limits assumed): as the sequence (P27824 21-481 limits assumed) above

The substance CNX antibody ab22595 (Abcam) came in with an Intensity (CNX+ cells - CNX -ve) in assay [1] of 3630.
On to Neg Control (antibody), for which, in assay [2], the concentration giving a half-maximal response (EC50) came out at 147 nM.
Substance negative control human IgG (antibody) returned an Intensity (CNX+ cells - CNX -ve) in assay [3] of 107.
CNX ab10286 (Abcam) (antibody) returned a concentration for a half-maximal effect (EC50 (read off the curve)) in assay [4] of 0.2 µg/mL.

For orientation: EC50 means the concentration that produces a half-maximal response. The EC50 (read off the curve) is the concentration needed to bring the measured effect to its halfway point.

Source of the values: US20260250378A1.
